Assay results reported in patent US20090111753A1, “Nogo-A Polypeptide Fragments, Variant Nogo Receptor-1 Polypeptides, and Uses Thereof” (Yale University, priority 2004, published 2009).
No end group written: not given here.

Legend:
NgR = target: T1, NgR (Homo sapiens, UniProt Q9BZR6); assay: AP fusion protein binding to NgR expressing COS-7 cells; details: for binding to NgR (COS-7 cells expressing NgR): qualitative
T1 construct: expressed in transfected cells; host or cells: COS-7
T1 sequence (Q9BZR6 27-447): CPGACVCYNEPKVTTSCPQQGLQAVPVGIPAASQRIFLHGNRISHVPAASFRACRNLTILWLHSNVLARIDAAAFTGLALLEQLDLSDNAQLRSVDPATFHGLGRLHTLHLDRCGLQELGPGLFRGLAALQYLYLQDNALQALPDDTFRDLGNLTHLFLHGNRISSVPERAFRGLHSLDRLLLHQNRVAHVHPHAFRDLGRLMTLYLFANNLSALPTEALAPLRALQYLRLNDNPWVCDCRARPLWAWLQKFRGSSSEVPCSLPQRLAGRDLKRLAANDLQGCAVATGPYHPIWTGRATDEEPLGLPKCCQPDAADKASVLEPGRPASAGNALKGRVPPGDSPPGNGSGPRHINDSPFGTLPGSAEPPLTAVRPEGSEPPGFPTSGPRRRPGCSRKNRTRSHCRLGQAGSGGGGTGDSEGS
Source text: Several alkaline phosphatase (AP) fusion proteins containing various Nogo-A segments derived from regions between the amino terminus and the first hydrophobic segment were examined to identify the mechanism of Amino-Nogo-A action. To generate additional AP fusion proteins, human amino Nogo fragments were amplified and ligated to the pcAP6 vector digested with restriction enzymes EcoRI and XhoI as described (Fournier, A. E., et al., Nature 409:341-346 (2001)). Plasmids were then transfected into HEK293T cells and conditioned media were collected after 7 days. None of these fragments bind with high affinity to non-transfected COS-7 cells. […] This binding is saturable with a Kd indistinguishable from that for AP-Nogo-66 association with NgR (Table I). To better define the region responsible for Amino-Nogo interaction with NgR, a range of truncation mutants of Amino-Nogo were examined as AP fusion proteins. […] In fact, the NgR-interacting segment of Amino-Nogo is fully accounted for in the extreme carboxyl 24 amino acids (aa 995-1018, Amino-Nogo-A-24) (Table I and FIG. 1D). […] We named this domain (aa 995-1013) as Amino-Nogo-A-19.
Binding Kds for AP fused Amino-Nogo fragments were measured by applying conditioned media containing AP fusion protein to NgR expressing COS-7 cells. Bound AP was stained and measured.
It has been recognized that the Amino-Nogo-A protein inhibits non-neuronal cell spreading and axonal outgrowth when the protein is substrate bound (Chen, M. S., et al., Nature 403:434-439 (2000); Fournier, A. E., et al., Nature 409:341-346 (2001)). […] The later domain has been termed Δ20. To determine whether the NgR-interacting aa of Amino-Nogo-A described in Example 1 regulate cell spreading and axonal outgrowth, various fragments were expressed as GST fusion proteins and purified from E. coli. To generate GST fusion proteins, amino Nogo fragments were cloned in pGEX2T (Amersham Pharmacia). Native and soluble GST fusion proteins were expressed and purified as described (GrandPre, T., et al., Nature 403:439-444 (2000)). COS-7 binding assays were done as described (Fournier, A. E., et al., Nature 409:341-346 (2001)). Bound AP to COS-7 cells was measured using NIH image software. Fibroblast spreading and cDRG outgrowth assay were done as described (Fournier, A. E., et al., Nature 409:341-346 (2001)) with some modifications. Briefly, 50 μl of purified GST fusion protein or peptides diluted in PBS was pipetted into polylysine precoated 96 well plates (Becton Dickson Biocoat plates) and dried overnight at room temperature. For fibroblast spreading assay, subconfluent COS-7 cells were then plated for 1 hour in serum containing medium before fixation and staining with rho damine-phalloidin.

NgR ligands = assay: Binding of alanine substituted NgR mutants to NgR ligands, summary categories; details: AP-Nogo66, AP-B4C, AP-B4C66, AP-Lingo-1, AP-OMgp and AP-MAG; compared to wild type NgR
How it was run: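 Human NgR1 template; 74 mutants with 1-8 solvent-exposed charged surface residues (within 5 Å) Ala-substituted, plus glycosylation-site mutants and D259N polymorphism. Mutants tested for binding of AP-tagged Nogo66, Amino-Nogo-B4C, B4C66, MAG, OMgp and Lingo-1; each classed as losing all, keeping all, or selective ligand binding.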

AP-Nogo66 = target: T2, AP-Nogo66 (Homo sapiens, UniProt Q9NQC3); assay: Binding of AP-Nogo66 to COS-7 cells expressing NgR mutants; design: key: ++: WT level; +: weaker than wild type; trace binding; −: no binding; details: AP-Ng66 5 nM; level of binding compared to wild type NgR
T2 construct: made in house; NgR mutants: COS-7
T2 sequence (Q9NQC3 1055-1120 limits assumed): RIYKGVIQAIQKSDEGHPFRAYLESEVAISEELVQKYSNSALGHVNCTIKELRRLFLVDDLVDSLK
Procedure: (§1) FIG. 4A. […] Binding of AP or AP fused NgR ligands to COS-7 cells expressing different NgR mutants as indicated. The concentrations of ligands applied were: AP, 30 nM; AP-Ng66, 5 nM; AP-Ng33, 10 nM; AP-B4C, 10 nM; AP-B4C66, 0.5 nM; AP-Lingo-1, 10 nM; AP-OMGP, 10 nM; AP-MAG, 30 nM. These concentrations are close to the binding Kd of these proteins to NgR so that any […] is reflected linearly in staining.
(§2) FIG. 4B. AP binding of NgR ligands to NgR mutants expressed as percentage of wild type NgR. AP after incubation with AP fused ligands, AP bound to COS-7 cells expressing NgR or NgR mutants were stained and measured.
(§3) To better define how multiple ligands bind to the NgR protein, we examined a series of Ala-substituted NgR for ligand binding activity. NgR mutagenesis was done using the Quick Change Multisite Directed Mutagenesis Kit (Stratagene catalog #200514). Human NgR1 was used as a template. Ala substitutions were generated for each of the charged residues predicted to be solvent accessible at the surface of the ligand binding domain of NgR (Barton, W. A., et al., Embo J. 22:3291-3302 (2003); He, X. L., et al., Neuron 38:177-185 (2003)). We generated mutants in which 1-8 surface residues localized within 5 A of one another were Ala-substituted. Because of the coiling nature of the LRR structure, as residues juxtaposed on the protein surface are commonly separated by approximately 25 residues in the primary structure. In addition to mutations in specific charged surface patches, other mutations were targeted to glycosylation sites and to regions predicted to be involved in ligand binding based on the NgR structure (Barton, W. A., et al., Embo J. 22:3291-3302 (2003); He, X. L., et al., Neuron 38:177-185 (2003)). In addition, a variant corresponding to a human polymorphism was examined (D259N). None of the mutations altered the Leu residues that define the LRR structure itself or the Cys residues critical in the amino and carboxyl terminal capping domains. The vast majority of such Ala surface substitution mutants were expressed as immunoreactive polypeptides with a molecular weight and an expression level indistinguishable from wild type NgR (FIG. 4C and data not shown).
(§4) This collection of 74 individual NgR mutants was interrogated for AP-Nogo-66, AP-Amino-Nogo-B4C, AP-MAG, AP-OMgp, and AP-Lingo-1 binding. AP-Nogo66, AP-MAG, AP-OMGP and AP-Lingo-1 constructs are described elsewhere (Fournier, A. E., et al., Nature 409:341-346 (2001); Liu, B. P., et al., Science 297:1190-1193 (2002); Mi, S., et al., Nat. Neurosci. 7:221-228 (2004); Wang, K. C., et al., Nature 417:941-944 (2002b)). The properties of the NgR mutants fell into one of three major categories (Table II and FIG. 5). A number of Ala substituted NgR polypeptides bound all of the ligands at wild type levels. […] In addition, a significant extent of the concave surface is dispensable for ligand binding.
(§5) Binding of Alanine substituted NgR mutants to NgR ligands were compared to wild type NgR and the levels of binding were categorized as ++ (WT level), + (weaker than wild type), tr (trace binding), − (no binding), N/A (not determined). NgR mutant proteins were also subjected to SDS-PAGE and probed by anti-NgR antibodies. Mutants with expression level similar to WT NgR were labeled as “y”.

AP-B4C = target: T3, AP-B4C (Homo sapiens, UniProt Q9NQC3); assay: Binding of AP-B4C to COS-7 cells expressing NgR mutants; design: key: ++: WT level; +: weaker than wild type; trace binding; −: no binding; details: AP-B4C 10 nM; level of binding compared to wild type NgR
T3 construct: a.a; 950-1018 (AmNg B4C); made in house; host or cells: AP ligand: HEK293T conditioned medium; NgR mutants: COS-7
T3 sequence (Q9NQC3 950-1018): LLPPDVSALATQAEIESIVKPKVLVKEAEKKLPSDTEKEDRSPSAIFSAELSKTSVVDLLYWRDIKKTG
Procedure: as §1, §2, §3, §4, §5

AP-B4C66 = assay: Binding of AP-B4C66 to COS-7 cells expressing NgR mutants; design: key: ++: WT level; +: weaker than wild type; trace binding; −: no binding; details: AP-B4C66 0.5 nM; level of binding compared to wild type NgR
Procedure: as §1, §2, §3, §4, §5

AP-Lingo-1 = target: T4, AP-Lingo-1 (Homo sapiens, UniProt Q96FE5); assay: Binding of AP-Lingo-1 to COS-7 cells expressing NgR mutants; design: key: ++: WT level; +: weaker than wild type; trace binding; −: no binding; details: AP-Lingo-1 10 nM; level of binding compared to wild type NgR
T4 construct: made in house; NgR mutants: COS-7
T4 sequence (Q96FE5 40-538 limits assumed): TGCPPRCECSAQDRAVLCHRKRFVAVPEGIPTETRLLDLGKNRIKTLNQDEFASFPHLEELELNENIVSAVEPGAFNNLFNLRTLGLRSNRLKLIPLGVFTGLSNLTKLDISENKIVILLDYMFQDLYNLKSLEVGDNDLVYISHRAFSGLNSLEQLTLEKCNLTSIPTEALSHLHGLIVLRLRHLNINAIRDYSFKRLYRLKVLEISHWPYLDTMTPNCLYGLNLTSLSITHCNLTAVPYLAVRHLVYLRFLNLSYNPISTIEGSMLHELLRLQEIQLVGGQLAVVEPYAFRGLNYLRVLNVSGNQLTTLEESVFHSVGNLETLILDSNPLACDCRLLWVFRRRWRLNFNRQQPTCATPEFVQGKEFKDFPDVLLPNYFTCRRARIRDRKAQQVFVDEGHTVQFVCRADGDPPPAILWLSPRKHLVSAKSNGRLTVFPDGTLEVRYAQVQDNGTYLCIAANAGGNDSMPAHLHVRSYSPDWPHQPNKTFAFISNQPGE
Procedure: as §1, §2, §3, §4, §5

AP-OMgp = assay: Binding of AP-OMgp to COS-7 cells expressing NgR mutants; design: key: ++: WT level; +: weaker than wild type; trace binding; −: no binding; details: AP-OMGP 10 nM; level of binding compared to wild type NgR
Procedure: as §1, §2, §3, §4, §5

AP-MAG = assay: Binding of AP-MAG to COS-7 cells expressing NgR mutants; design: key: ++: WT level; +: weaker than wild type; trace binding; −: no binding; details: AP-MAG 30 nM; level of binding compared to wild type NgR
Procedure: as §1, §2, §3, §4, §5

[1] = AP fused Amino-Nogo fragments in conditioned media on NgR expressing COS-7 cells, 'No binding at' cells continue on the next line: AmNg A 150 nM, a.a. 1000-1018, a.a. 1005-1018, Amino of NgC 25 nM, a.a. 950-1004 50 nM, Amino of NgB 100 nM

............IFSAELSKTS (LLPPDVSALATQAEIESIVKPKVLVKEAEKKLPSDTEKEDRSPSAIFSAELSKTS; also: alkaline phosphatase fusion; UniProt Q9NQC3 950-1004, looked up, fragment) [a.a. 950-1004, AP fusion protein of aa from the Nogo-A-specific region alone]
NgR Kd (nM) (NgR; [1]): No binding
binding to NgR (COS-7 cells expressing NgR) (NgR): do not bind to NgR

IFSAELSKTSVVDLLYWRDIK [a.a. 995-1015]
Kd (NgR; [1]): 4.55 ± 3.66 nM

LSKTSVVDLLYWRDIKKTG (also: alkaline phosphatase fusion; UniProt Q9NQC3 1000-1018, looked up, fragment) [a.a. 1000-1018, AP fusion protein of Nogo-A aa 1000-1018]
NgR Kd (nM) (NgR; [1]): No binding

MDGQKKNWKDKVVDLLYWRDIKKTG (not fully specified) [Amino of NgC, AP fusion protein of Amino-Nogo residues of Nogo-C]
NgR Kd (nM) (NgR; [1]): No binding
binding to NgR (COS-7 cells expressing NgR) (NgR): fail to associate with NgR-expressing cells

VVDLLYWRDIKKTG (also: alkaline phosphatase fusion; UniProt Q9NQC3 1005-1018, looked up, fragment) [a.a. 1005-1018, AP fusion protein of Nogo-A aa 1005-1018]
NgR Kd (nM) (NgR; [1]): No binding

B1: 108, 131: human NgR1 mutant, listed residues mutated to alanine (protein)
chain: CPGACVCYNEPKVTTSCPQQGLQAVPVGIPAASQRIFLHGNRISHVPAASFRACRNLTILWLHSNVLARIDAAAFTGLALLAQLDLSDNAQLRSVDPATFHGLGALHTLHLDRCGLQELGPGLFRGLAALQYLYLQDNALQALPDDTFRDLGNLTHLFLHGNRISSVPERAFRGLHSLDRLLLHQNRVAHVHPHAFRDLGRLMTLYLFANNLSALPTEALAPLRALQYLRLNDNPWVCDCRARPLWAWLQKFRGSSSEVPCSLPQRLAGRDLKRLAANDLQGCAVATGPYHPIWTGRATDEEPLGLPKCCQPDAADKASVLEPGRPASAGNALKGRVPPGDSPPGNGSGPRHINDSPFGTLPGSAEPPLTAVRPEGSEPPGFPTSGPRRRPGCSRKNRTRSHCRLGQAGSGGGGTGDSEGSGALPSLTCSLTPLGLALVLWTVLGPC
ligand binding category of NgR mutant (Table II) (NgR ligands): Differential binding
Ng66 (AP-Nogo66): +
B4C (AP-B4C): +
B4C-66 (AP-B4C66): +
Lingo-1 (AP-Lingo-1): −
OMgp (AP-OMgp): +
MAG (AP-MAG): tr
